Source: US6090631
Values belong to the substance of their own block, whether it stands above or below them.

Tests used:
[1] = target: GST-syntaxin 1A fusion protein, full-length (2-289) (rat); assay: GST-syntaxin 1A pull-down (5 µM GST-syntaxin, 10 µM fusion protein), immunoblot
[2] = target: GST-syntaxin 1A fusion protein, full-length (2-289) (rat); assay: competition on GST-syntaxin beads against 125I-ω-CTx-GVIA-labeled N-type channels
[3] = target: GST alone (Schistosoma japonicum (Blood fluke)) [GST: P08515]; assay: 125I-ω-CTx-GVIA-labeled channels on GST beads, direct counting
[4] = target: GST fusion protein including full-length SNAP-25 (Mus musculus (Mouse)) (UniProt P60879); assay: titration on GST-SNAP-25 beads, immunoblot
[5] = target: GST-syntaxin 1A fusion protein, full-length (2-289) (rat); assay: titration on GST-syntaxin beads, immunoblot
[6] = target: GST-syntaxin 1A fusion protein, full-length (2-289) (rat); assay: GST-syntaxin pull-down at equal concentrations, immunoblot

Substance: His-LII-III (718-859)
- pixel value (phosphorimaging of bound fusion protein, FIG. 14) [1]: 45 pixel value

Substance: His-LII-III (832-963)
- pixel value (phosphorimaging of bound fusion protein, FIG. 14) [1]: 751 pixel value

Substance: His-LII-III (1027-1145)
- percent reduction in the specific binding of labeled N-type channels to GST-syntaxin [2]: 10%

Substance: [125I]-ω-CTx-GVIA-labeled N-type calcium channels, partially purified from rat brain (from UniProt Q02294)
- cpm of labeled channels bound [3]: 549 cpm

Substance: hBI 722-1036
- half-maximal saturation [4]: 1 to 2 µM
- half-maximal saturation [5]: 2 µM

Results, then the substance that gave them:

- percent reduction in the specific binding of labeled N-type channels to GST-syntaxin [2]: 78%
Substance: His-LII-III (773-859)

- pixel value (phosphorimaging of bound fusion protein, FIG. 14) [1]: 1650 pixel value
- fold greater affinity than hBI 722-1036 [5]: 10 fold
- half-maximal saturation [5]: 0.2 µM
- fold higher affinity than rbB 718-859 [6]: 40 fold
Substance: rbB 718-963
